Results on four molecules are retold here after patent publication US20210220451A1.

Like-named read-outs stand apart in the source and are kept apart here.

Series [1] has as its system T1, 33-mer toxic gluten peptide from alpha-gliadin.
T1 sequence: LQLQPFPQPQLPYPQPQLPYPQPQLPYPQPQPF

In series [2] the target is 33-mer toxic gluten peptide from alpha-gliadin. Kind of series: cell-based or functional assay.
Series [3] concerns the target T2, 33-mer toxic gluten peptide from alpha-gliadin.
T2 chain: T1 sequence

In turn, pepsin registered a Relative Peak Area (%) of undigested 33-mer by LC-MS after 0.5 h at 100:1 substrate:enzyme, percent of the control without enzyme in series [1] of 93.2%. On to “high molecular weight fraction (>approx. 10 kDa) of Nepenthes extract (fluid)”, for which the Relative Peak Area (%) of undigested 33-mer by LC-MS after 0.5 h at 100:1 substrate:enzyme, percent of the control without enzyme in series [2] was determined as 0%.

B1: recombinant nepenthesin II (from N. gracilis, acid-activated) (protein)
chain: QSSSGIETPVYAGDGEYLMNVAIGTPDSSFSAIMDTGSDLIWTQCEPCTQCFSQPTPIFNPQDSSSFSTLPCESQYCQDLPSETCNNNECQYTYGYGDGSTTQGYMATETFTFETSSVPNIAFGCGEDNQGFGQGNGAGLIGMGWGPLSLPSQLGVGQFSYCMTSYGSSSPSTLALGSAASGVPEGSPSTTLIHSSLNPTYYYITLQGITVGGDNLGIPSSTFQLQDDGTGGMIIDSGTTLTYLPQDAYNAVAQAFTDQINLPTVDESSSGLSTCFQQPSDGSTVQVPEISMQFDGGVLNLGEQNILISPAEGVICLAMGSSSQLGISIFGNIQQQETQVLYDLQNLAVSFVPTQCGAS
Consider B1, for which the Relative Peak Area (%) of undigested 33-mer by LC-MS after 0.5 h at 100:1 substrate:enzyme, percent of the control without enzyme in series [3] turned out to be 34%.

B2: recombinant nepenthesin I (from N. gracilis, acid-activated) (protein)
chain: APTHSTSRTALNHRHEAKVTGFQIMLEHVDSGKNLTKFQLLERAIERGSRRLQRLEAMLNGPSGVETSVYAGDGEYLMNLSIGTPAQPFSAIMDTGSDLIWTQCQPCTQCFNQSTPIFNPQGSSSFSTLPCSSQLCQALSSPTCSNNFCQYTYGYGDGSETQGSMGTETLTFGSVSIPNITFGCGENNQGFGQGNGAGLVGMGRGPLSLPSQLDVTKFSYCMTPIGSSTPSNLLLGSLANSVTAGSPNTTLIQSSQIPTFYYITLNGLSVGSTRLPIDPSAFALNSNNGTGGIIIDSGTTLTYFVNNAYQSVRQEFISQINLPVVNGSSSGFDLCFQTPSDPSNLQIPTFVMHFDGGDLELPSENYFISPSNGLICLAMGSSSQGMSIFGNIQQ
Regarding B2, the Relative Peak Area (%) of undigested 33-mer by LC-MS after 0.5 h at 100:1 substrate:enzyme, percent of the control without enzyme in series [3] was found to be 78.7%.
